Laboratory results: US6462254

Molecular target: angiostatin-FLAG-HA (pMB281.1)
Experiment: ECL sandwich assay on 293 cell lysate, biotinylated anti-FLAG M2 capture

For “anti-FLAG M2 monoclonal antibody (IBI/Kodak)”, the ECL signal above background (fold above background) was greater than 2.
